In patent publication US10544202B2, “Mutant proteins and methods for their production” (Medical Research Council, priority 2013, dated 2020):
Numbering of substitutions follows the chain as printed. Numbers in names are those of the source. Where “and” joins values, the source holds several entries; their conditions need not be identical. Identical values can stand only once.

B1: wild-type SERT: cocaine-sensitive rat serotonin transporter, parent protein (protein, listed as Rattus sp.)
chain: METTPLNSQKVLSECKDREDCQENGVLQKGVPTTADRAEPSQISNGYSAVPSTSAGDEASHSIPAATTTLVAEIRQGERETWGKKMDFLLSVIGYAVDLGNIWRFPYICYQNGGGAFLLPYTIMAIFGGIPLFYMELALGQYHRNGCISIWRKICPIFKGIGYAICIIAFYIASYYNTIIAWALYYLISSLTDRLPWTSCTNSWNTGNCTNYFAQDNITWTLHSTSPAEEFYLRHVLQIHQSKGLQDLGTISWQLTLCIVLIFTVIYFSIWKGVKTSGKVVWVTATFPYIVLSVLLVRGATLPGAWRGVVFYLKPNWQKLLETGVWVDAAAQIFFSLGPGFGVLLAFASYNKFNNNCYQDALVTSVVNCMTSFVSGFVIFTVLGYMAEMRNEDVSEVAKDAGPSLLFITYAEAIANMPASTFFAIIFFLMLITLGLDSTFAGLEGVITAVLDEFPHIWAKRREWFVLIVVITCVLGSLLTLTSGGAYVVTLLEEYATGPAVLTVALIEAVAVSWFYGITQFCSDVKEMLGFSPGWFWRICWVAISPLFLLFIICSFLMSPPQLRLFQYNYPHWSIVLGYCIGMSSVICIPTYIIYRLISTPGTLKERIIKSITPETPTEIPCGDIRMNAV
B2: L405A: rat SERT single mutant L405A (protein)
chain: B1 chain with L405A
B3: G278A: rat SERT single mutant G278A (protein)
chain: B1 chain with G278A
B4: L99A: rat SERT single mutant L99A (protein)
chain: B1 chain with L99A
B5: SAH7: thermostabilised rat SERT triple mutant A505L+P499A+L405A (protein, UniProt P31652 1-630, looked up, variant A505L P499A L405A)
Sodium-dependent serotonin …: B1 chain with L405A, P499A, A505L
B6: P499A: rat SERT single mutant P499A (protein)
chain: B1 chain with P499A
B7: G115A: rat SERT single mutant G115A (protein)
chain: B1 chain with G115A
B8: A505L: rat SERT single mutant A505L (protein)
chain: B1 chain with A505L
B9: G113A: rat SERT single mutant G113A (protein)
chain: B1 chain with G113A
B10: A169L: rat SERT single mutant A169L (protein)
chain: B1 chain with A169L
B11: L406A: rat SERT single mutant L406A (protein)
chain: B1 chain with L406A
B12: SAH6: thermostabilised rat SERT triple mutant A505L+L99A+G278A (protein, UniProt P31652 1-630, looked up, variant A505L L99A G278A)
Sodium-dependent serotonin …: B1 chain with L99A, G278A, A505L
B13: F311A: rat SERT single mutant F311A (protein)
chain: B1 chain with F311A

What was measured:
SAH6 [1] = molecular target: T1, SAH6 (Rattus norvegicus, UniProt P31652, A505L/G278A/L99A); assay: [125I]-RTI55 saturation binding on membranes, SAH6; design: expressed in transfected cells; host or cells: T-REx-293 (HEK293) cells, membranes; details: read-out: apparent KD for [125I]-RTI55 binding
SAH7 = molecular target: T2, SAH7 (Rattus norvegicus, UniProt P31652, A505L/L405A/P499A); assay: [125I]-RTI55 saturation binding on membranes, SAH7; details: read-out: apparent KD for [125I]-RTI55 binding
T2 construct: expressed in transfected cells; host or cells: T-REx-293 (HEK293) cells, membranes

SAH6 [2] = molecular target: T1, SAH6; details: SAH6 vs wild-type SERT
[3] = Thermostability assay of [125I]-RTI55-bound detergent-solubilised SERT (apparent Tm)
T-REx-293 cells [4] = assay: Cell surface expression by confocal microscopy; format: cell-based; design: key: *: low expression; **: as wild-type SERT; ***: higher expression than wild-type SERT; details: estimation by eye of fluorescence upon confocal microscopy
T-REx-293 cells [5] = assay: Expression level of SERT-mCherry mutants transiently transfected into T-REx-293 cells; format: cell-based; details: relative to wild-type SERT = 100%; transient transfection
Method: (FIG. 3A) Comparison of [^125I]-RTI55 bound to 554 detergent-solubilised Ala/Leu mutants at either 4° C. or after heating at 30° C. for 30 minutes. The data relating to thermostability (the heated samples) have been normalized to the amount of wild-type SERT remaining after heating (40%; horizontal dashed line). The expression level of wild-type SERT is indicated by the vertical dashed line and the grey column (0-200 dpm) represents non-specific binding of [^125I]-RTI55 to the parental T-REx-HEK293 cell line (no SERT). Each data point represents binding to the equivalent of 50,000 cells measured in duplicate (estimated error is ±20% in dpm). […] (FIG. 3C) Amino acid sequence of SERT (SEQ ID NO: 1) showing the positions of the thermostabilising mutations (hatched) that consistently gave >1° C. increase in Tm compared to wild-type SERT; residues in bold and hatched were used to stabilize either SAH6 and/or SAH7. N-linked glycosylation sites are indicated by the hexagons, a putative disulphide bond is shown as a grey line and the N-terminal and C-terminal fusion partners are shown (c-Myc tag and the fluorescent reporter protein mCherry) are indicated.

[6] = system: tetracycline-induced stable T-REx cell lines; assay: [3H]-5HT uptake assay; format: cell-based; details: cell lines expressing cell surface-expressed mutant-GFP

| Molecule | Cell surface expression (T-REx-293 cells [4]) | Expression (%) SERT = 100% (T-REx-293 cells [5]) [%] | further results |
| --- | --- | --- | --- |
| COC(=O)[C@H]1C(c2ccc(I)cc2)C[C@@H]2CC[C@H]1N2C (stereo partly drawn) [[^125I]-RTI55, RTI55 (β-CIT)] | – | – | Kd (SAH6 [1]): 3.8 nM and 3.7 nM; Kd (SAH7): 1.3 nM and 1.2 nM and 1.5 nM |
| CN(C)CCCN1c2ccccc2CCc2ccccc21 [imipramine] | – | – | decrease in affinity relative to wild-type SERT (SAH6 [2]): 6.7 fold |
| ibogaine | – | – | decrease in affinity relative to wild-type SERT (SAH6 [2]): 4.5 fold |
| B1 | – | – | amount of transporter remaining after heating ([3]; 30° C. for 30 minutes): 40%; Apparent Tm in 0.1% DDM ([3]; 125I-RTI55-bound detergent-solubilised SERT, apparent Tm ±1° C.): 28 °C; apparent Tm ([3]; [125I]-RTI55-bound, DDM-solubilised, 30 min heating): 28 °C; transporter remaining functional after heating ([3]; single-temperature assay, 28° C. for 30 minutes): approximately 40% |
| B2 | *** | 543 | – |
| B3 | * | 39 | – |
| B4 | ** | 131 | – |
| B5 | – | – | transport of [3H]-5HT into the cell [6]: no significant transport |
| B6 | ** | 65 | – |
| B7 | *** | 327 | – |
| B8 | *** | 175 | – |
| B9 | ** | 42 | – |
| B10 | ** | 31 | – |
| B11 | * | 87 | – |
| B12 | – | – | transport of [3H]-5HT into the cell [6]: no significant transport |
| B13 | ** | 492 | – |
